Data as given in patent publication US20220363762A1, “METHODS AND COMBINATIONS FOR THE TREATMENT OF CANCER USING IMMUNE CHECKPOINT INHIBITOR ANTIBODIES” (ASTRAZENECA AB, priority 2020, published 2022).

B1: Tremelimumab (antibody)
VL: PSSLSASVGDRVTITCRASQSINSYLDWYQQKPGKAPKLLIYAASSLQSGVPSRFSGSGSGTDFTLTISSLQPEDFATYYCQQYYSTPFTFGPGTKVEIKRTVAAPSVFIFPPSDEQLKSGTASVVCLLNNFYPREAKV
VH: GVVQPGRSLRLSCAASGFTFSSYGMHWVRQAPGKGLEWVAVIWYDGSNKYYADSVKGRFTISRDNSKNTLYLQMNSLRAEDTAVYYCARDPRGATLYYYYYGMDVWGQGTTVTVSSASTKGPSVFPLAPCSRSTSESTAALGCLVKDYFPEPVTVSWNSGALTSGVH
modifications: light chain variable region; heavy chain variable region
notes: anti-CTLA-4 antibody; arm T = tremelimumab 750 mg monotherapy

Experiments:
Assay type in all cases: in vivo, human
[1] = system: peripheral blood T cell receptors (TCRs); experiment: Molecular analysis of peripheral blood T cell receptors (TCR clonal expansion); conditions: for Median expanded T cell clones at Day 29, n: Day 29, first cycle of Q4W dosing, spread in cell beside
Excerpt: This trend was not seen with monotherapy D or the lower dose T combination (T75+D) (FIG. 15). Additionally, greater clonal expansion of T-cells was associated with better OS and seen in D+T combination arms (FIG. 16).

advanced HCC = experiment: Randomized, open-label, multi-center clinical study of durvalumab and tremelimumab (Example 2): efficacy; conditions: for ORR, % / Median (95% CI) OS, mo: Table 1, per study arm; for Median (95% CI) OS, mo: 95% CI in cell beside; for Median PFS (95% CI): patients with advanced HCC
Experimental: The study disclosed below is a randomized, open-label, multi-center, global, clinical study to assess the efficacy and safety of durvalumab monotherapy and durvalumab plus tremelimumab combination therapy versus sorafenib in the treatment of immune checkpoint inhibitor-naïve patients with HCC who progressed on, were intolerant to, or refused sorafenib. In the foregoing disclosure, a flat-dose regimen of 1500 mg (approximately equivalent to 20 mg/kg) of durvalumab plus 300 mg (equivalent to 4 mg/kg) of tremelimumab was used in this study.
The study population included patients 18 years of age or older with advanced HCC, Barcelona Clinic Liver Cancer Stage B (not eligible for locoregional therapy) or stage C, and Child-Pugh A classification liver disease. Patients must not have received any prior systemic therapy for HCC. Patients were stratified according to macrovascular invasion (yes versus no), etiology of liver disease (hepatitis B virus [confirmed HBV] versus hepatitis C virus [confirmed HCV] versus others), and performance status (Eastern Cooperative Oncology Group [ECOG] 0 versus 1).
A total of 332 patients were enrolled (T300+D, n=75; durvalumab, n=104; tremelimumab, n=69; T75+D, n=84). Patients were randomized in an equal ratio to groups treated with durvalumab 1500 mg monotherapy (D), tremelimumab 750 mg monotherapy (T), combination therapy with durvalumab 1500 mg plus tremelimumab 75 mg×4 doses (T75+D) followed by durvalumab Q4W, combination therapy with durvalumab 1500 mg plus tremelimumab 300 mg xl dose (T 300+D) followed by durvalumab Q4W. Upon closure to further enrollment into the T75+D arm, patients were randomized in an equal ratio to groups treated with D, T300+D, and Sorafenib. Durvalumab and tremelimumab were administered via intravenous (IV) infusion every 4 weeks (Q4W). Sorafenib was administered orally BID (see FIGS. 3 and 4).
(§1) Tremelimumab 750 mg via IV infusion Q4W starting at Week 0 for seven doses and then Q12W until confirmed PD, unacceptable toxicity, or any discontinuation criterion was met. (Note: If a patient's weight decreased to ≤30 kg, the patient received weight-based dosing of tremelimumab 10 mg/kg Q4W, until the weight increased to >30 kg, at which point the patient received the flat dose of tremelimumab 750 mg Q4W).
as §1, with “Durvalumab 1500 mg monotherapy • Durvalumab 1500” for “Tremelimumab 750”, “0” for “0 for seven doses and then Q12W”, “durvalumab 20” for “tremelimumab 10”, “durvalumab 1500” for “tremelimumab 750”, “Q4W.)” for “Q4W).”
Durvalumab 1500 mg plus tremelimumab 75 mg×4 doses combination therapy (Arm B) • Durvalumab 1500 mg plus tremelimumab 75 mg×4 doses starting at Week 0, followed by durvalumab 1500 mg monotherapy Q4W starting 4 weeks after the final infusion of the combination therapy until confirmed PD, unacceptable toxicity, or any discontinuation criteria was met. (Note: If a patient's weight decreased to 30 kg or below (≤30 kg), the patient received weight-based dosing of durvalumab 20 mg/kg Q4W and tremelimumab 1 mg/kg Q4W, until the weight increased to >30 kg, at which point the patient received the original assigned flat dose of durvalumab 1500 mg Q4W with or without tremelimumab 75 mg Q4W.)
Durvalumab 1500 mg plus tremelimumab 300 mg×1 dose combination therapy (Arm C) • Durvalumab 1500 mg plus tremelimumab 300 mg×1 dose starting at Week 0, followed by durvalumab 1500 mg monotherapy Q4W starting 4 weeks after the first and final infusion of the combination therapy until confirmed PD, unacceptable toxicity, or any discontinuation criteria was met. […]

[2] = Tremelimumab trough concentration after the first dose (Cmin); conditions: 300 mg tremelimumab
Experimental: (§2) Finally, an exposure-response model was developed to describe the relationship between tremelimumab exposure and proliferating CD8+Ki67+ T cells in patients with uHCC. Relationships between tremelimumab trough concentration after the first dose (Cmin) and the maximum change from baseline (CFB) for CD8+ Ki67+ T cell counts were evaluated using linear and non-linear regression models. Covariate effects were evaluated on the model intercept and the drug effect (Emax) using a stepwise search approach. The relationship between CD8+ Ki67+ T cell count CFB and tremelimumab trough concentration was best described by an Emax model. The only statistically significant and well estimated covariate effect was the baseline CD8+ Ki67+ T cell count on Emax. The maximum effect was higher in patients with lower baseline CD8+ Ki67+ T cell counts and lower in patients with higher baseline CD8+ Ki67+ T cell counts. At the 10th, median, and 90th percentiles of baseline CD8+ (3, 9, and 25 cells/uL), the maximum effect is 593%, 341%, and 77.9% change from baseline, respectively.

[3] = system: proliferating CD8+Ki67+ T cells; experiment: Exposure-response model: tremelimumab exposure versus proliferating CD8+Ki67+ T cells
Experimental: as §2

Molecule | clonal expansion of T cells in responders compared to non-responders ([1]; Day 29) | Median expanded T cell clones at Day 29, n [1] | median increased T-cell clonal expansion, difference between arms ([1]; day 29, D versus T75+D arms) | ORR, % (advanced HCC) | Median (95% CI) OS, mo (advanced HCC) | Median PFS (95% CI) (advanced HCC) | median Cmin [2] | maximum effect (Emax), change from baseline of CD8+ Ki67+ T cell count ([3]; 10th percentile of baseline CD8+ (3 cells/uL)) | maximum effect (Emax), change from baseline of CD8+ Ki67+ T cell count ([3]; 90th percentile of baseline CD8+ (25 cells/uL)) | estimated half-maximal effective concentration (EC50) ([3]; Emax model, Cmin versus maximum change from baseline of CD8+ Ki67+ T cell counts, uHCC patients) | maximum effect (Emax), change from baseline of CD8+ Ki67+ T cell count ([3]; median baseline CD8+ (9 cells/uL))
Durvalumab [reference compound] | not seen | 32 | no significant difference | 10.6% | 13.6 mo | 2.07 (1.84-2.83) months |  |  |  |  | 
B1 |  | 100 |  | 7.2% | 15.1 mo | 2.69 (1.87-5.29) months | 12900 ng/mL | 593% | 77.9% | 5.24 µg/mL | 341%
